Experimental data published in publication PMC10200341 (Bioconjugate chemistry, 2022).
No end group written: not given here. FAM = fluorescein

Target: Nb6E (alpaca)
Test: in-gel fluorescence of the crosslinked product

Kd: 206 nM
Binder: {FAM}-QADQCAAELARQIS (not fully specified (residue 5)) [FAM-1(NO2)]
